Results published in patent publication US20220236279A1 (published 2022).
No end group written: not given here.

Target: human atypical chemokine receptor 3 (ACKR3) (human, UniProt P25106 1-362)
Test: binding competition with CXCL12-AF647, flow cytometry

Chain of human atypical chemokine receptor 3 (ACKR3) (P25106 whole entry): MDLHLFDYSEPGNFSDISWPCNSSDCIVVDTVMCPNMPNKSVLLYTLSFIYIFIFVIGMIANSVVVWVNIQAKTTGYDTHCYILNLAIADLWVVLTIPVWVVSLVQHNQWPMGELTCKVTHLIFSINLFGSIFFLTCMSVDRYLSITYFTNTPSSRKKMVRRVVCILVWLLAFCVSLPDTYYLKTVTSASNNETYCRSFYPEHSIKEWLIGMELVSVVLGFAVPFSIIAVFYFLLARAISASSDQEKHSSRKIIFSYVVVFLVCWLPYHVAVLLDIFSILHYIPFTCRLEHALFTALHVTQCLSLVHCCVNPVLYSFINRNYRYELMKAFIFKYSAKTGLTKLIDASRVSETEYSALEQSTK

Binder	IC50 [nM]
YGGFMRRVGRPEWWMDYQKRYG [BAM22]	32.7
YGGFLRRIRPKLKWDNQ [dynorphin A]	82.7
YGGFMRRV-NH2 [adrenorphin, YGGFMRRV (SEQ ID NO: 32; NH2-substituted at C-terminus)]	49
H-FGGFMRRK-NH2 [LIH383, octapeptide FGGFMRRK (SEQ ID NO: 3; NH2-substituted at C-terminus)]	4
YGGFLRRQFKVVT [dynorphin B]	465
FGGFTGARKSARK-NH2 (also: reduced peptide bond ψ(CH2-NH) between Phe1 and Gly2) [Phe1ψ(CH2-NH)-Gly2-Nociceptin-1-13 amide (SEQ ID NO: 13; NH2-substituted at C-terminus)]	> 10000
GGFLRRIRPKLKWDNQ [dynorphin 2-17 (SEQ ID NO: 19)]	11100
GGFLRRIRPKLK-NH2 [dynorphin 2-13 (SEQ ID NO: 20; NH2-substituted at C-terminus)]	20900
